From patent US20110034399A1, “Liquid and Freeze Dried Formulations” (IPSEN PHARMA S.A.S., priority 2008, published 2011) come the findings set out here.

A short description of the series: Formulation stability of lyophilisate form (HPLC content and purity, pH) on storage. The format is physicochemical. Here is the method:
Stabilities measurements were performed by means of High Performance Liquid Chromatographic (HPLC) method. The HPLC system a HPLC Waters Alliance 2695 completed by detection system 2487 Dual λ Absorbance Detector, the column used was a C18, 250×4.6 mm. All details concerning instrumental conditions are gathered in table 6. Elution conditions are gathered in table 7. Two pharmaceutical forms were studied in parallel for stability assays over six months at +5° C. and +25° C./60% RH (relative humidity) and +40° C./75% RH. Measurements were carried out in parallel with (in either wfi, or 5% dextrose as solvent) and a lyophilisate (drug substance on its own) or as second variant of formulations with an additional bulking agents such as mannitol, glycine and trehalose) in WFI. […] C (% initial) represents the content expressed in percentage at the moment T with regard to the content at the moment Tzero. […] In table 7 are gathered the elution program, the ratio of each eluant (mobile phase) used for measurement of formulation stabilities. […] Thereafter 20 ml of acetic acid 0.1 N were added under shaking by means of a vortex and if required additionally dissolved in ultrasonic bath in order to obtain a total dissolution. Weight of brut BI[…] 760 was calculated by means of the following relation: […]

As to `CCCN1CC(CSCC(=O)N[C@H](CCCCNC(=O)CSC[C@@H]2C[C@@H]3c4cccc5[nH]cc(c45)C[C@H]3N(CCC)C2)C(=O)N[C@H]2CSSC[C@@H](C(=O)N[C@H](C(N)=O)[C@@H](C)O)NC(=O)[C@H](CC)NC(=O)[C@H](CCCCN)NC(=O)[C@@H](Cc3c[nH]c4ccccc34)NC(=O)[C@H](Cc3ccc(O)cc3)NC2=O)C[C@@H]2c3cccc4[nH]cc(c34)C[C@H]21` (stereo partly drawn) [BIM23A760, Dop2-DLys(Dop2)-c(Cys-Tyr-DTrp-Lys-Abu-Cys)-Thr-NH2], the “C (% initial)” value came out at 103.6% initial (+5° C., T3 Months); 73.0% initial (+5° C., T6 Months); 100% initial (+25° C./60% RH, T0); 98.8% initial (+25° C./60% RH, T3 Months); 52.0% initial (+40° C./75% RH, T1 Month); 29.0% initial (+40° C./75% RH, T3 Months). Further, the “P (% a/a)” value runs as follows: (+5° C., T3 Months) 96.10% a/a; (+5° C., T6 Months) 96.80% a/a; (+25° C./60% RH, T0) 95.90% a/a; (+25° C./60% RH, T3 Months) 93.70% a/a; (+40° C./75% RH, T1 Month) 95.9% a/a; (+40° C./75% RH, T3 Months) 95.5% a/a. For the same compound, the pH is listed as 6.64 (+5° C., T3 Months); 5.81 (+5° C., T6 Months); 6.8 (+25° C./60% RH, T0); 6.63 (+25° C./60% RH, T6 Months); 5.60 (+40° C./75% RH, T3 Months); 5.62 (+40° C./75% RH, T6 Months).
